Literature values, collected in article PMC10947368.

How the values were obtained:
IL-2Rα (Homo sapiens) = IL-2Rα (Homo sapiens) (UniProt P01589)
[1] = biological target: IL-2Rβ/γc heterodimeric receptor (Homo sapiens) (UniProt P14784)
UniProt P14784, sequence (P14784 27-240, chain 1 of 2): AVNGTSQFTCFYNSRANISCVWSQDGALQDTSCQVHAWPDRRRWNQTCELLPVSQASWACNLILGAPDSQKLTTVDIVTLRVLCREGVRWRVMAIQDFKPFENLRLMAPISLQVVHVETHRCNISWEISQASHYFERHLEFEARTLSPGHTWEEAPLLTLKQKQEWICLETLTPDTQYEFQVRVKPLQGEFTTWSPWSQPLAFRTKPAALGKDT
UniProt P14784, sequence (P31785 23-262, chain 2 of 2, further chain): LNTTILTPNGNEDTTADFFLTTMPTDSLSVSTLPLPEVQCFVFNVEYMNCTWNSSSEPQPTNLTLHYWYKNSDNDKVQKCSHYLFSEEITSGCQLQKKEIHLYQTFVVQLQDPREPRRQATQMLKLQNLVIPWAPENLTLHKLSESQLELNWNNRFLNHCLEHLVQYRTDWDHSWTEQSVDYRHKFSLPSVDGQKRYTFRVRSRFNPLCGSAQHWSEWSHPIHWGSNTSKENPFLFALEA

UniProt P01589, sequence (P01589 22-240): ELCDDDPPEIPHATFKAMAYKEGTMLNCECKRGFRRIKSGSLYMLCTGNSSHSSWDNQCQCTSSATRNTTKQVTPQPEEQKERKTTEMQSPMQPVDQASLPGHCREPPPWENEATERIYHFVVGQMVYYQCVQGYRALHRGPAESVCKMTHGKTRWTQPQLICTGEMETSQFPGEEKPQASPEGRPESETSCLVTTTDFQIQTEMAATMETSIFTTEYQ

Kd (IL-2Rα (Homo sapiens)): 10 nM
Kd [1]: 1 nM
Substance: Interleukin-2 (from UniProt P60568)
